Source: patent EP3411068A2 (dated 2018)

B1: B1C4A7 (antibody, human IgG1, kappa, V domains shown)
VH: EVQLLESGGGLVQPGGSLRLSCAASGFTFSWYVMGWVRQAPGKGLEWVSSIYPQGGATSYADSVKGRFTISRDNSKNTLYLQMNSLRAEDTAVYYCARGNYFDYWGQGTLVTVSS
VL: DIQMTQSPGTLSLSPGEGATLSCRASQSVSSNYFGWYQQKPGQAPRLLIYGASSRATGIPDRFSGSGSGTDFTLTISRLEPEDSAVYYCQQFDSLPLTFGGGTKVEIKR
notes: Parental mono-specific anti-VEGFR2 IgG1; also called anti-VEGFR2 antibody B1C4A7
B2: BsAb (D7A8-B1A1) (bispecific antibody, human IgG1, lambda, L234A L235A)
heavy: not shown
light: QSALTQPASVSGSPGQSITISCTGTSSDVGAYNYVSWYQQHPGKAPKLMIYDVSNRPSGVSNRFSGSKSGNTASLTISGLQAEDEADYYCSSYTSSSTRVFGTGTKVTVLGQPKAAPSVTLFPPSSEELQANKATLVCLISDFYPGAVTVAWKADSSPVKAGVETTKPSKQSNNKYAASSYLSLTPEQWKSHRSYSCQVTHEGSTVEKTVAPTECS
B3: BsAb (D7A8-B1A1)_30 (bispecific antibody, human IgG1, lambda, L234A L235A)
heavy: not shown
light: QSALTQPASVSGSPGQSITISCTGTSSDVGAYNYVSWYQQHPGKAPKLMIYDVSNRPSGVSNRFSGSKSGNTASLTISGLQAEDEADYYCSSYTSSSTRVFGTGTKVTVLGQPKAAPSVTLFPPSSEELQANKATLVCLISDFYPGAVTVAWKADSSPVKAGVETTKPSKQSNNKYAASSYLSLTPEQWKSHRSYSCQVTHEGSTVEKTVAPTECS
notes: Variant of BsAb (D7A8-B1A1), apparently with the 30GS linker
B4: BsAb (D7A8-B1A1)_30cc (bispecific antibody, human IgG1, lambda, L234A L235A)
heavy: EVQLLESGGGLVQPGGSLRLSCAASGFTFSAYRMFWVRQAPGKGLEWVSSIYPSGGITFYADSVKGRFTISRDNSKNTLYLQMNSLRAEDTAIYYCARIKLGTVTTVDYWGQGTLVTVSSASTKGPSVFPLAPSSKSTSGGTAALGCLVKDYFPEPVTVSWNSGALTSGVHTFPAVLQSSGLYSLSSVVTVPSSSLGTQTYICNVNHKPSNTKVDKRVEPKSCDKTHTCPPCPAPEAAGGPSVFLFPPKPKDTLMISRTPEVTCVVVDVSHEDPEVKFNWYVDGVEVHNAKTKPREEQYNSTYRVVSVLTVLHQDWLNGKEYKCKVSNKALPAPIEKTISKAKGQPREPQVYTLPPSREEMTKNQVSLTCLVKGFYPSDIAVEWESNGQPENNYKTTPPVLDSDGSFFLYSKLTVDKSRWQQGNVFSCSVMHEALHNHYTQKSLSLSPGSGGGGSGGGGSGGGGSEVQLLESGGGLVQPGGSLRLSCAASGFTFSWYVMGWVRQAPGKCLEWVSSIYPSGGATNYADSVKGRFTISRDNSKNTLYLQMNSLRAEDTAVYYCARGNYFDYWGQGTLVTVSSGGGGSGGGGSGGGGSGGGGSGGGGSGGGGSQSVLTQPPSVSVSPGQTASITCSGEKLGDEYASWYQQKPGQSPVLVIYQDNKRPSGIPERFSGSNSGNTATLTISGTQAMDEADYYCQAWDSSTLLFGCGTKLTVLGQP
light: QSALTQPASVSGSPGQSITISCTGTSSDVGAYNYVSWYQQHPGKAPKLMIYDVSNRPSGVSNRFSGSKSGNTASLTISGLQAEDEADYYCSSYTSSSTRVFGTGTKVTVLGQPKAAPSVTLFPPSSEELQANKATLVCLISDFYPGAVTVAWKADSSPVKAGVETTKPSKQSNNKYAASSYLSLTPEQWKSHRSYSCQVTHEGSTVEKTVAPTECS
notes: Variant of BsAb (D7A8-B1A1), apparently with the 30GS linker and an added disulfide bond in the scFv; also called BsAb (D7A8-BlAl)_30cc
B5: BsAb (A11-B1A1) (bispecific antibody, human IgG1, kappa, L234A L235A)
heavy: not shown
light: DIQMTQSPSSLSASVGDRVTITCRASQTVSKYFNWFQQKPGEAPKLLIYATSTLQSGVPSRFSGSGYGTEFTLTISSLQPEDFATYYCQQSYTTPWTFGQGTKVEIKRTVAAPSVFIFPPSDEQLKSGTASVVCLLNNFYPREAKVQWKVDNALQSGNSQESVTEQDSKDSTYSLSSTLTLSKADYEKHKVYACEVTHQGLSSPVTKSFNRGEC
B6: BsAb (A11-B1A1)_30 (bispecific antibody, human IgG1, kappa, L234A L235A)
heavy: not shown
light: DIQMTQSPSSLSASVGDRVTITCRASQTVSKYFNWFQQKPGEAPKLLIYATSTLQSGVPSRFSGSGYGTEFTLTISSLQPEDFATYYCQQSYTTPWTFGQGTKVEIKRTVAAPSVFIFPPSDEQLKSGTASVVCLLNNFYPREAKVQWKVDNALQSGNSQESVTEQDSKDSTYSLSSTLTLSKADYEKHKVYACEVTHQGLSSPVTKSFNRGEC
B7: BsAb (A11-B1A1)_30cc (bispecific antibody, human IgG1, kappa, L234A L235A)
heavy: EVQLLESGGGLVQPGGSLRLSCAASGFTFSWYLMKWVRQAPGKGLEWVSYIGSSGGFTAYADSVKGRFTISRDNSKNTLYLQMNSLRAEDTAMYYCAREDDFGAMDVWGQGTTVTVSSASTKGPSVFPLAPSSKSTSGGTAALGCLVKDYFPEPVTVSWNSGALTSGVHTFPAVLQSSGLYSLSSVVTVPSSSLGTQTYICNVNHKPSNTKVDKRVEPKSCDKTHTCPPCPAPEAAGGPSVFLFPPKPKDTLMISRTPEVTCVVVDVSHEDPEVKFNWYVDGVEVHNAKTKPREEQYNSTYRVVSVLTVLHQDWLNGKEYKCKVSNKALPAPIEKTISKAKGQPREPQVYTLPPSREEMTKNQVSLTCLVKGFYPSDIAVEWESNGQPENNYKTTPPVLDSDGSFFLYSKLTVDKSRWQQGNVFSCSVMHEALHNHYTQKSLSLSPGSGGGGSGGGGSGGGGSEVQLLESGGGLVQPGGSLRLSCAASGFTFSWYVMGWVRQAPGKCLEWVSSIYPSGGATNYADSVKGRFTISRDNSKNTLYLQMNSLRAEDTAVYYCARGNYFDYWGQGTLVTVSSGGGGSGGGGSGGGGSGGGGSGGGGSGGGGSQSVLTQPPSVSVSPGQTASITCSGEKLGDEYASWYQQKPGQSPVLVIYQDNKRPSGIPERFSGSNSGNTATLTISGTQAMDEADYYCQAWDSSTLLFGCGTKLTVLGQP
light: DIQMTQSPSSLSASVGDRVTITCRASQTVSKYFNWFQQKPGEAPKLLIYATSTLQSGVPSRFSGSGYGTEFTLTISSLQPEDFATYYCQQSYTTPWTFGQGTKVEIKRTVAAPSVFIFPPSDEQLKSGTASVVCLLNNFYPREAKVQWKVDNALQSGNSQESVTEQDSKDSTYSLSSTLTLSKADYEKHKVYACEVTHQGLSSPVTKSFNRGEC
notes: Variant of BsAb (A11-B1A1), apparently with the 30GS linker and an added disulfide bond in the scFv; also called BsAb (Al l-BlAl)_30cc
B8: BsAb (A1-A8)-LALA (bispecific antibody, human IgG1, lambda)
heavy: not shown
light: QSVLTQPPSVSVSPGQTASITCSGEKLGDEYASWYQQKPGQSPVLVIYQDNKRPSGIPERFSGSNSGNTATLTISGTQAMDEADYYCQAWDSSTLLFGGGTKLTVLGQPKAAPSVTLFPPSSEELQANKATLVCLISDFYPGAVTVAWKADSSPVKAGVETTKPSKQSNNKYAASSYLSLTPEQWKSHRSYSCQVTHEGSTVEKTVAPTECS
notes: LALA version: leucines 234 and 235 of the IgG1 CH2 mutated to alanine; also called bi-specific antibody A1-A8; A18
B9: BsAb (A7-A8)-LALA (bispecific antibody, human IgG1, kappa)
heavy: not shown
light: DIQMTQSPGTLSLSPGEGATLSCRASQSVSSNYFGWYQQKPGQAPRLLIYGASSRATGIPDRFSGSGSGTDFTLTISRLEPEDSAVYYCQQFDSLPLTFGGGTKVEIKRTVAAPSVFIFPPSDEQLKSGTASVVCLLNNFYPREAKVQWKVDNALQSGNSQESVTEQDSKDSTYSLSSTLTLSKADYEKHKVYACEVTHQGLSSPVTKSFNRGEC
notes: LALA version: leucines 234 and 235 of the IgG1 CH2 mutated to alanine; also called bi-specific antibody A7-A8

What was measured:
mouse VEGFR2-Fc [1] = biological target: T1, mouse VEGFR2-Fc (mouse, UniProt P35918 20-762); assay: blocking ELISA, mVEGFR2-Fc binding to coated mVEGF
T1 construct: also called mVEGFR2; recombinant mouse VEGFR2

human VEGFR2-Fc [2] = biological target: T2, human VEGFR2-Fc (human, UniProt P35968 20-764); assay: dose response ELISA, antigen-Fc coated, HRP anti-human Fab
T2 construct: also called hVEGFR2; recombinant human VEGFR2

mouse VEGFR2-Fc [3] = biological target: T1, mouse VEGFR2-Fc; assay: as above
[4] = biological target: T3, human VEGFR2 expressed on KDR-PAE cells (human, UniProt P35968 20-1356); assay: flow cytometry on KDR-PAE cells
T3 construct: whole, on cells; also called PAE-KDR; KDR-PAE (hVEGFR2)

human VEGFR2-Fc [5] = biological target: T2, human VEGFR2-Fc; assay: blocking ELISA, hVEGFR2-Fc binding to coated hVEGF
human VEGFR2-Fc [6] = biological target: T2, human VEGFR2-Fc; assay: SPR (Biacore), hVEGFR-Fc immobilized on CM5, antibody injected, 1:1 Langmuir
human VEGFR2-Fc [7] = biological target: T2, human VEGFR2-Fc; assay: binding assay as in Example 2 (Figure 42)
human PDL1-Fc [8] = biological target: T4, human PDL1-Fc (human, UniProt Q9NZQ7 19-238); assay: binding assay as in Example 2 (Figure 42)
T4 construct: also called hPDL1; hPDLl

mouse PDL1-Fc [9] = biological target: T5, mouse PDL1-Fc (mouse, UniProt Q9EP73 19-239, limits assumed); assay: blocking ELISA, biotin mPDL1-Fc binding to immobilized mPD1
T5 construct: also called mPDL1; mPDLl

human PDL1-Fc [10] = biological target: T4, human PDL1-Fc; assay: blocking ELISA, biotin hPDL1-Fc binding to immobilized hPD1
human PDL1-Fc [11] = biological target: T4, human PDL1-Fc; assay: SPR (Biacore), hPDL1-Fc immobilized on CM5, antibody injected, 1:1 Langmuir
[12] = biological target: T6, mouse PDL1 expressed on B16-F10 cells (mouse, UniProt Q9EP73 19-290); assay: flow cytometry on B16-F10 cells
T6 construct: whole, on cells; also called B16-F10 (mPDLl); cell expressed mouse PDL1

[13] = biological target: T7, human PDL1 expressed on MDA-MB-231 cells (human, UniProt Q9NZQ7 19-290); assay: flow cytometry on MDA-MB-231 cells
T7 construct: whole, on cells; also called cell expressed human PDL1

mouse PDL1-Fc [14] = biological target: T5, mouse PDL1-Fc; assay: dose response ELISA, antigen-Fc coated, HRP anti-human Fab
human PDL1-Fc [15] = biological target: T4, human PDL1-Fc; assay: as above

T4 sequence (Q9NZQ7 19-238 limits assumed): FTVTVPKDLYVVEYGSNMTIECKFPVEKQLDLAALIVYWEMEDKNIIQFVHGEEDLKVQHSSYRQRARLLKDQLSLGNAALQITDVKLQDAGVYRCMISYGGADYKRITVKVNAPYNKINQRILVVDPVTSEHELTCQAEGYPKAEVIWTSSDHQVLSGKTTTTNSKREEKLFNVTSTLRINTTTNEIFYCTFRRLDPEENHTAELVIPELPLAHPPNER
T2 sequence (P35968 20-764 limits assumed): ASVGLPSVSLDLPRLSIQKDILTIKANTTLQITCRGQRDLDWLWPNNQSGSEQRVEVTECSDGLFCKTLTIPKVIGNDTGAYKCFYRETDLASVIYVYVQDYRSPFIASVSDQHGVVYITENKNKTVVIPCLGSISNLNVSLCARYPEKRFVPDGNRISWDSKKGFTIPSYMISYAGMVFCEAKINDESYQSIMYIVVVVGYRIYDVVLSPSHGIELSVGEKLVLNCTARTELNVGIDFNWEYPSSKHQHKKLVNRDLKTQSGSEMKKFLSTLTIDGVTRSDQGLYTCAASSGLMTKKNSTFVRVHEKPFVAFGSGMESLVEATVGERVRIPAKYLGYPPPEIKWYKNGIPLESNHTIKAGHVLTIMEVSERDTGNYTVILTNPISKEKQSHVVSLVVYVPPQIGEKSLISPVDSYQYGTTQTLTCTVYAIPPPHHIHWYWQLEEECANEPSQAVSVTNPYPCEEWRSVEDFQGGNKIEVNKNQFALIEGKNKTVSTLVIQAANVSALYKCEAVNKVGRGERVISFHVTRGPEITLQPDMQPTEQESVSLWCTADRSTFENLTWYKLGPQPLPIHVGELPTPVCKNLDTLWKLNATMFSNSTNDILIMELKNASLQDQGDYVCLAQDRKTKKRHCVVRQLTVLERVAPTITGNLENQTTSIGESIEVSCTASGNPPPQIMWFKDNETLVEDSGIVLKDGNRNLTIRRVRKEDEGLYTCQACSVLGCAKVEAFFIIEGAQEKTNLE
T1 sequence (P35918 20-762 limits assumed): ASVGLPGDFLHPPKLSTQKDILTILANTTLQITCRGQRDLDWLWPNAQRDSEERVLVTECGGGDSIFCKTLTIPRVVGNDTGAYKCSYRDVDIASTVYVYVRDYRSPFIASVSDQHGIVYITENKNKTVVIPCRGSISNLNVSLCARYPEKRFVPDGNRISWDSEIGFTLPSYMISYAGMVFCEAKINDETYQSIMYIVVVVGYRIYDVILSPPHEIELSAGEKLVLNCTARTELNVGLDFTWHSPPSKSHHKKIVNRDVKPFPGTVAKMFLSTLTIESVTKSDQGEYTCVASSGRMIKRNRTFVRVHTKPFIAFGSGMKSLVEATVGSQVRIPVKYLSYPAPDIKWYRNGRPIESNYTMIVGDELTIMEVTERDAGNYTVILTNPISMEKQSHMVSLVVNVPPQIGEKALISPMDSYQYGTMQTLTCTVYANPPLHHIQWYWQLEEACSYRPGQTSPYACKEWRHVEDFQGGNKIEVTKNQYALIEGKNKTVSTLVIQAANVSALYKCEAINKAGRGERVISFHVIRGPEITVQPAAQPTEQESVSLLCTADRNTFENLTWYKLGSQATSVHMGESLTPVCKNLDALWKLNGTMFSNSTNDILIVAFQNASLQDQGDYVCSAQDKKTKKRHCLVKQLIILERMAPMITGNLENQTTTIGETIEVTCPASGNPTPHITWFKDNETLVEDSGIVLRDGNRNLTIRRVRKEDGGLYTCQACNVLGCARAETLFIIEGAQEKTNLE
T5 sequence (Q9EP73 19-239 limits assumed): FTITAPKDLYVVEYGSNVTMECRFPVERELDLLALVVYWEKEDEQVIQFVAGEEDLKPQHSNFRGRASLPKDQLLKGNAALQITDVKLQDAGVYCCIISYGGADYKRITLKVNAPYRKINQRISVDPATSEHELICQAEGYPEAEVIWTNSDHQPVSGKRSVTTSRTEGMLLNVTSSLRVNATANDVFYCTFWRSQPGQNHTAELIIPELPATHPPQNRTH
T3 sequence (P35968 20-1356): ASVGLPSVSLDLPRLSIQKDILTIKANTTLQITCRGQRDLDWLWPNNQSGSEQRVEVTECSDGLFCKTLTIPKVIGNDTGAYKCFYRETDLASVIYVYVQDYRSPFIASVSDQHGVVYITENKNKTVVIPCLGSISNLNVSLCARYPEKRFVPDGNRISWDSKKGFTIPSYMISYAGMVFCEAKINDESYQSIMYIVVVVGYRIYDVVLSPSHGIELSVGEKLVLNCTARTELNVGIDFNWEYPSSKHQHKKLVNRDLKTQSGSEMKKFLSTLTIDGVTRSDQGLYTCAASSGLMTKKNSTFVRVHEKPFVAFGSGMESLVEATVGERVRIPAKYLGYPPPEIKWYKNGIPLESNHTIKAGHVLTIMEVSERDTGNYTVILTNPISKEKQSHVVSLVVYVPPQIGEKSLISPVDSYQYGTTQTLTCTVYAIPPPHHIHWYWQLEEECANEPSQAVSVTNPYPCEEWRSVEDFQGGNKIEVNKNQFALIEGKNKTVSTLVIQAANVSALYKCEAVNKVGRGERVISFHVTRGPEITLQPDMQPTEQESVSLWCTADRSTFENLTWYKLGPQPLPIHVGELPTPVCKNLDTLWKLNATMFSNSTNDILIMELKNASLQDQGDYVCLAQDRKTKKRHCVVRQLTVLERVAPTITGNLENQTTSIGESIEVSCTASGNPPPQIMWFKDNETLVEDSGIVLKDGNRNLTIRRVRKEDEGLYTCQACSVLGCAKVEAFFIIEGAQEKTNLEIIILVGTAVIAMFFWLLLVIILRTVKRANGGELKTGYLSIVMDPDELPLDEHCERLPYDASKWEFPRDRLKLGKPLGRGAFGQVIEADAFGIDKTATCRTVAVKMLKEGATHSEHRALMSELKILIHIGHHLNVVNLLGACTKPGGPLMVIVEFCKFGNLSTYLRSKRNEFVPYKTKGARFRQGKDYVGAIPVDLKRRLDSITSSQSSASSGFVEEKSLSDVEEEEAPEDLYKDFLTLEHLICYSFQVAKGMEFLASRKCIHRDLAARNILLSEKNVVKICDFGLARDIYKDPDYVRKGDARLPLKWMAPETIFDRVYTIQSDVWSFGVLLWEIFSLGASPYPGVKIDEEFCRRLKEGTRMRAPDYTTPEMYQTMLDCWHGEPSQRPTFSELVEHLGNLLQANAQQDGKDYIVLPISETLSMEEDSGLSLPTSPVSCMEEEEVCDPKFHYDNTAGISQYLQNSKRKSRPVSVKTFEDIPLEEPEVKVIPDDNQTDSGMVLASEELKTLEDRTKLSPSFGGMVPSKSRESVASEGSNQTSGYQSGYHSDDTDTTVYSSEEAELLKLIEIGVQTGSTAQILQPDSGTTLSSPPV
T6 sequence (Q9EP73 19-290): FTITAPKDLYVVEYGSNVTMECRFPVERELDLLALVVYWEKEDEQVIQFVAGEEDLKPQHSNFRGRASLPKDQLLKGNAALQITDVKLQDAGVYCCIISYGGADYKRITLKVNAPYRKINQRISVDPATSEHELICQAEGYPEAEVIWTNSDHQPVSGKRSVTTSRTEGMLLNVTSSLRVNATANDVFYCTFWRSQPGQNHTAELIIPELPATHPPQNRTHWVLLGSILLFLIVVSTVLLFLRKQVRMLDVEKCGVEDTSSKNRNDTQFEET

| Binder | EC50 (human VEGFR2-Fc [2]) | EC50 [4] | IC50 (human VEGFR2-Fc [5]) | Kd (human VEGFR2-Fc [6]) | binding result (human VEGFR2-Fc [7]) | binding result (human PDL1-Fc [8]) | further results |
| --- | --- | --- | --- | --- | --- | --- | --- |
| B1 | 0.107 nM | 0.522 nM | 1.72 nM | 0.052 nM | – | – | IC50 (mouse VEGFR2-Fc [1]): 0.973 nM; EC50 (mouse VEGFR2-Fc [3]): 0.466 nM |
| B2 | – | – | – | – | binds | binds | – |
| B3 | – | – | – | – | binds | binds | – |
| B4 | – | – | – | – | binds | binds | – |
| B5 | – | – | – | – | binds | binds | – |
| B6 | – | – | – | – | binds | binds | – |
| B7 | – | – | – | – | binds | binds | – |
| B8 | 0.128 nM | 0.779 nM | 1.19 nM | ~0.2 nM | – | – | IC50 (mouse PDL1-Fc [9]): 3.2 nM; IC50 (human PDL1-Fc [10]): 2.51 nM; Kd (human PDL1-Fc [11]): ~0.0032 nM; EC50 [12]: 0.113 nM; EC50 [13]: 0.402 nM; EC50 (mouse PDL1-Fc [14]): 0.16 nM; EC50 (human PDL1-Fc [15]): 0.088 nM |
| B9 | 0.128 nM | 0.533 nM | 1.29 nM | ~0.047 nM | – | – | IC50 (mouse PDL1-Fc [9]): 5.59 nM; IC50 (mouse VEGFR2-Fc [1]): 0.801 nM; IC50 (human PDL1-Fc [10]): 2.51 nM; Kd (human PDL1-Fc [11]): ~0.0012 nM; EC50 [12]: 0.122 nM; EC50 [13]: 0.223 nM; EC50 (mouse PDL1-Fc [14]): 0.137 nM; EC50 (human PDL1-Fc [15]): 0.079 nM; EC50 (mouse VEGFR2-Fc [3]): 0.598 nM |
